Two substances from paper doi:10.1101/2020.10.04.325654 can be followed below.

Assay in all cases: ELISA
A general note: ELISA stands for enzyme-linked immunosorbent assay.

The target of assay [1] is His-tagged ASH/RhoGAP domain of OCRL (536aa-901aa) (human) (UniProt Q01968).
Assay [2] has the same target. The source holds these as a separate data set.
Assay [3] shares this target. This is another data set of the same source.

pEC50: −log10 of the molar value. Where two headings read alike, the source gives them in different places.

His-tagged ASH/RhoGAP domain of OCRL (536aa-901aa) (human), sequence (Q01968 536-901): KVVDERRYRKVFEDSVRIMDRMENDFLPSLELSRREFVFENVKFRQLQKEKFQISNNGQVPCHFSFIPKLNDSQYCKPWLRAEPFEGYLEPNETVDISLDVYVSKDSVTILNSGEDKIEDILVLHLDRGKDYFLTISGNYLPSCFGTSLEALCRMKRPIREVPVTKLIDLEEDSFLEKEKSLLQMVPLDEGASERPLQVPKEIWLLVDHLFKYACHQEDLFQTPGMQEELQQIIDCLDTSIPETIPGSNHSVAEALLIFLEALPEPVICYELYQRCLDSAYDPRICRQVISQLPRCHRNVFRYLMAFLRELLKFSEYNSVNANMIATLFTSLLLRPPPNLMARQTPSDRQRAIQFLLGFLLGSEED

Take “GST-SdhA-CBM2 (from UniProt Q6RCQ3 1029-1260) (domain or fragment)”: the negative logarithm of the EC50 (pEC50) (usually the EC50 on a negative log10 scale, so that one unit is a factor of ten) in assay [1] is 7.06; in assay [2], 7.09.

As to “GST-SdhA-CBM2A (from UniProt Q6RCQ3 1029-1080) (domain or fragment)”, the pEC50 is 7.57 in assay [2] and 8.09 in assay [3].
